The results in this text go back to patent publication US5688511, “Cellular protein TDP-43 and regulation of HIV-1 gene expression” (Board of Regents, The University of Texas System).

In series [1] the target is T1, GST-TDP-43 (7-414) (Homo sapiens, UniProt Q13148 SEQ:7-414). The experiment in a line: competition; up to 50x excess did not significantly compete. The note with it: tags: N-terminal GST.
The target in series [2] is T2, TDP-43 full length (thrombin-cleaved) (Homo sapiens, UniProt Q13148 SEQ:1-414). Put plainly: UV crosslinking. The note with it: tags: GST removed by thrombin.
T2 sequence (Q13148 whole entry): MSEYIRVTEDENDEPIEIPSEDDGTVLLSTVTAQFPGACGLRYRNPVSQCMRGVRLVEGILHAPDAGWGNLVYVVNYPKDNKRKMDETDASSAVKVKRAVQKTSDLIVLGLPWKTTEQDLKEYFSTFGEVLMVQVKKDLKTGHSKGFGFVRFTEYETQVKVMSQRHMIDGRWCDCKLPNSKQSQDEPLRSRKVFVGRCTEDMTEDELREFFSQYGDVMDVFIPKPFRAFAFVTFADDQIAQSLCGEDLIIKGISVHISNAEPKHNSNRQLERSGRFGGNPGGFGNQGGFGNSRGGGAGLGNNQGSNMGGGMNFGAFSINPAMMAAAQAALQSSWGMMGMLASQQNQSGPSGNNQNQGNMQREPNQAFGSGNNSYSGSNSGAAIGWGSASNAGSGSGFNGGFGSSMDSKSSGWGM
Series [3] addresses T1, GST-TDP-43 (7-414). The experiment in a line: competition; up to 50x excess did not compete. The following applies: tags: N-terminal GST.
For series [4], the target named is T2, TDP-43 full length (thrombin-cleaved). The experiment in a line: competition; 50x excess did not compete UV crosslinking. The note with it: tags: GST removed by thrombin.
The target of a further series is GST-TDP-43 (7-240) (Homo sapiens, UniProt Q13148 SEQ:7-240). The experiment in a line: EMSA; glycine-rich domain deleted; bound like wild type. The note with it: tags: N-terminal GST; label: 32P. In general terms: A gel shift assay detects complexes by their altered migration in electrophoresis.
Chain of GST-TDP-43 (7-240) (Q13148 7-240): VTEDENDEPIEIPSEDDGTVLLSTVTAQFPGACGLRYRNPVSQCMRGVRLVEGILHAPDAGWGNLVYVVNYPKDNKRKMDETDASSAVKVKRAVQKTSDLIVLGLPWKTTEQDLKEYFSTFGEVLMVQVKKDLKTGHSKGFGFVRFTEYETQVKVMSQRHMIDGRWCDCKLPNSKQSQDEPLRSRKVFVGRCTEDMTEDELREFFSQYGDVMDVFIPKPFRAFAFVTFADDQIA
The target in another series is GST-TDP-43 (7-333) (Homo sapiens, UniProt Q13148 SEQ:7-333). Put plainly: EMSA; glycine-rich domain truncation; bound like wild type. The note with it: tags: N-terminal GST; label: 32P.
Chain of GST-TDP-43 (7-333) (Q13148 7-333): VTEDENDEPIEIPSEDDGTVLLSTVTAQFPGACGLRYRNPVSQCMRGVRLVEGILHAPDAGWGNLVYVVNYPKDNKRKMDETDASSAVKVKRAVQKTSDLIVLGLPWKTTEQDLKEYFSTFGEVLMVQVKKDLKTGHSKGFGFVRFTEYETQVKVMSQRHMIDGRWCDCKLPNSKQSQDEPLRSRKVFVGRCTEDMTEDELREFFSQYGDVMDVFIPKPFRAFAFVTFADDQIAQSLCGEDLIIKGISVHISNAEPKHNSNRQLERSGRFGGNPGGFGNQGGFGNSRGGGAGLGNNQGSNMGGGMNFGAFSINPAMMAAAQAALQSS
The next series deals with GST-TDP-43 (7-166) (Homo sapiens, UniProt Q13148 SEQ:7-166). Put plainly: EMSA; only first RNP-1 retained; bound, affinity higher when both RNP1 and RNP2 present. The following applies: tags: N-terminal GST; label: 32P.
Chain of GST-TDP-43 (7-166) (Q13148 7-166): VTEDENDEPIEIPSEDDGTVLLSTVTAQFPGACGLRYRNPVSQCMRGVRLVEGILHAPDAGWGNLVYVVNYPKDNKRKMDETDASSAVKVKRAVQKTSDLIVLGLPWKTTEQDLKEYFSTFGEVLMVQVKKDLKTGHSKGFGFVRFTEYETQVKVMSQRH
The next series deals with GST-TDP-43 (7-198) (Homo sapiens, UniProt Q13148 SEQ:7-198). Put plainly: EMSA; part of RNP domain deleted; still bound. The note with it: tags: N-terminal GST; label: 32P.
Chain of GST-TDP-43 (7-198) (Q13148 7-198): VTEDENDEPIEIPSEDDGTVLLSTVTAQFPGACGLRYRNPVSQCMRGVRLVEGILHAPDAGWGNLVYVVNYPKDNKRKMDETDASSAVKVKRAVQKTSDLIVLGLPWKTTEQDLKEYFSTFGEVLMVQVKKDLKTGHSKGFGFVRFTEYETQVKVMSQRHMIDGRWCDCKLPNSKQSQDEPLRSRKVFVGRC
For series [5], the target named is T2, TDP-43 full length (thrombin-cleaved). Put plainly: UV crosslinking, 43 and 86 kDa species, 160 or 800 ng protein. The following applies: tags: GST removed by thrombin; label: 32P.
Series [6] addresses T1, GST-TDP-43 (7-414). The experiment in a line: EMSA; 50 mM KCl, 5 mM MgCl2, room temperature; competed by 5-50x unlabeled WT. The following applies: tags: N-terminal GST; label: 32P.
The target of series [7] is T1, GST-TDP-43 (7-414). Put plainly: competition; up to 50x excess did not significantly compete; listed as -46/-13 in Example 8. The following applies: tags: N-terminal GST.

T1 sequence (Q13148 7-414): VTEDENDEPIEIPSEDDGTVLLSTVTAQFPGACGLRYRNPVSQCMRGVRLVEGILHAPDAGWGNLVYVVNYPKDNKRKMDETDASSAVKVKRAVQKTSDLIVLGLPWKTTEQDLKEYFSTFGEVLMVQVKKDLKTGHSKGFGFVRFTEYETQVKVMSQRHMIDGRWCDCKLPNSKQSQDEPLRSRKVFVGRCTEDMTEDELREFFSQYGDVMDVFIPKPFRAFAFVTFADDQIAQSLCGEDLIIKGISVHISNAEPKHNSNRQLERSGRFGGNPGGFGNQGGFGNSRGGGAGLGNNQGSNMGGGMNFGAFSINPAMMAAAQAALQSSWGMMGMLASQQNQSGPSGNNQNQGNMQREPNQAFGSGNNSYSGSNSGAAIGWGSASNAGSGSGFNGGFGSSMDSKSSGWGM

B1: HIV-1 LTR -45/+1 (dsDNA)
DNA 1: GCGTGCCTCAGATGCTGCATATAAGCAGCAGCTGCTTTTTGCCTGTACT
DNA 2: AGTACAGGCAAAAAGCAGCTGCTGCTTATATGCAGCATCTGAGGCACGC
As to B1, the binding result in the series with GST-TDP-43 (7-414) [1] is listed as “no binding”.

B2: HIV-1 LTR -18/+28 delta1 (dsDNA)
DNA 1: CTGACGTACGTACGTACTGGGTCTCTCTGGTTAGACCAGATCT
DNA 2: AGATCTGGTCTAACCAGAGAGACCCAGTACGTACGTACGTCAG
With B2, the binding result (in [2]; with GST-TDP-43 (7-414) [3]) was “no binding” throughout.

B3: HIV-1 LTR -18/+28 delta2 (dsDNA)
DNA 1: CTGCTTTTTGCCTGTACGTACATGCGTACGTTAGACCAGATCT
DNA 2: AGATCTGGTCTAACGTACGCATGTACGTACAGGCAAAAAGCAG
For the molecule B3, the binding result (in series [2]; with GST-TDP-43 (7-414) [3]) was “no binding” each time.

B4: HIV-1 LTR -18/+28 delta1+delta2 (dsDNA)
DNA 1: CTGACGTACGTACGTACGTACATGCGTACGTTACGGACCATCT
DNA 2: AGATGGTCCGTAACGTACGCATGTACGTACGTACGTACGTCAG
B4: the binding result (in series [4]; with GST-TDP-43 (7-414) [3]) was “no binding” each time.

B5: HIV-1 LTR +10/+50 (dsDNA)
DNA 1: GGTTAGACCAGATCTGAGCCTGGGAGCTCTCTGGCTAACTAG
DNA 2: CTAGTTAGCCAGAGAGCTCCCAGGCTCAGATCTGGTCTAACC
Regarding B5, the binding result in the series with GST-TDP-43 (7-414) [1] is recorded as “no binding”.

B6: HIV-1 LTR -18/+28 (TAR DNA) WT (dsDNA)
DNA 1: CTGCTTTTTGCCTGTACTGGGTCTCTCTGGTTAGACCAGATCTGAG
DNA 2: CTCAGATCTGGTCTAACCAGAGAGACCCAGTACAGGCAAAAAGCAG
B6: the binding result (with GST-TDP-43 (7-240); in the series with GST-TDP-43 (7-333); with GST-TDP-43 (7-166); with GST-TDP-43 (7-198); in series [5]; with GST-TDP-43 (7-414) [6]) was “binds” in each case.

B7: HIV-1 LTR -45/-13 (dsDNA)
DNA 1: GCGTGCCTCAGATGCTGCATATAAGCAGCTGCTTT
DNA 2: AAAGCAGCTGCTTATATGCAGCATCTGAGGCACGC
Consider B7, for which the binding result with GST-TDP-43 (7-414) [7] is reported as “no binding”.

B8: AdMLP TATA (dsDNA)
DNA 1: AAGGGGGGCTATAAAAGGGGGTGGGGG
DNA 2: CCCCCACCCCCTTTTATAGCCCCCCTT
In the case of B8, in the series with GST-TDP-43 (7-414) [3], the binding result was “no binding”.
